Laboratory results as given in patent publication US20020035240A1 (Amgen, published 2002).

Target: T1, rat p55CDC (rat, UniProt Q62623 1-499, phosphorylated in CHO cells (sites not given))
T1 construct: 499 amino acids; In the assays it came from cell lysates: CHO cells transfected with the 1.8 kb rat cDNA (PMTp55s), or the endogenous protein of Rat1 cells
Assay: co-immunoprecipitation with p55CDC antibody from 35S-labelled CHO cell lysates, SDS-PAGE
Method: Autoradiography was performed for 1 week.
In vitro translation was performed using a nuclease treated rabbit reticulocyte lysate (Promega, Madison, WI) and [³H]-leucine (Amersham TRK683). The mRNA template was produced by using the Stratagene in vitro transcription kit and the p55CDC cDNA subcloned into the Bluescript vector as substrate. Cell lysates were prepared as described (59) after rinsing the plates twice with PBS. Cells were lysed in modified radioimmunoprecipitation assay (RIPA) buffer with additional […] (150 mM NaCl, 1.0% NP-40, 1.0% sodium deoxycholate, 0.1% SDS, 2 mM EDTA, 6 mM Na₂HPO₄, 4 mM NaH₂PO4 50 mM NaF, 200 μM Na₃VO₄, 20 μg/ml aprotinin, 1 μg/ml leupeptin, 10 μg/ml soybean trypsin inhibitor and 50 μg/ml phenylmethyl sulfonyl fluoride). All protease inhibitors were purchased from Sigma. Protein concentrations were estimated using the Bicinchoninic acid reagent (Pierce). For 250 μg lysate in a final volume of 700 μl RIPA buffer, we used 7 μl of affinity purified p55CDC antibodies (140 μg protein/ml) or 12 μl of p55CDC competed antiserum (700 μg protein/ml) which gave an equivalent level of immunoglobulin for both preparations. Immunoprecipitation of p34^cdc2 complexes was done using 10 μl of the p34^cdc2 mouse monoclonal antibody 17 (Santa Cruz Biotechnology, Santa Cruz, Calif.). […]

T1 sequence (Q62623 whole entry D77E): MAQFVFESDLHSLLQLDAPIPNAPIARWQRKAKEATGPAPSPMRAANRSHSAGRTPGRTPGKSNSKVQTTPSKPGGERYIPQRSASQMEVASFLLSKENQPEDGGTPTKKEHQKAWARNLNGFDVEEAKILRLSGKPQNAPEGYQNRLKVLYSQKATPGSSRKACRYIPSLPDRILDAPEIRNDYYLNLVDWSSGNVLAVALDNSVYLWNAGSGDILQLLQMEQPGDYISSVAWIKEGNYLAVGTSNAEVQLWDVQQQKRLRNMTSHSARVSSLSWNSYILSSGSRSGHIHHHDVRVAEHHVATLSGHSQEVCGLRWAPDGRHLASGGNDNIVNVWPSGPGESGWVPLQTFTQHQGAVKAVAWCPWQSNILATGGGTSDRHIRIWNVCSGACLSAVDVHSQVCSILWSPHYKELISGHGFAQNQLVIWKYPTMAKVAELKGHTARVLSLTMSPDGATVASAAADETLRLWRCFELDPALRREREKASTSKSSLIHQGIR

B1: p34cdc2 (CHO cells) (enzyme)
chain: not shown
**Q.** Does B1 bind?
**A.** no binding
